{
  "source": "patent US20240301022A1",
  "about": "(ASTON UNIVERSITY, published 2024)",
  "key": {"[1]": {"molecular_target": "T1, human β2-adrenergic receptor (human, UniProt P07550 1-413)", "T1 construct": "whole, on cells; CHO-K1 cells transfected with the human β2-AR, from the University of Nottingham; also called β2-AR; β-2AR", "experiment": "[125I] ZAG saturation binding to crude membranes of CHO-K1 cells transfected with human β2-AR, non-linear regression", "experimental": "(§1) Binding studies were carried out at 37° C. by incubating membranes (500 μg protein) in 0.4 ml 50 mM Tris HCl, pH 7.5, containing 0.5 mM MgCl₂ for 60 min with various concentrations of [¹²⁵I]\n(§2) Non-specific binding was determined by the binding of [¹²⁵I]"}, "[2]": {"molecular_target": "T2, human β1-adrenergic receptor (human, UniProt P08588 1-477)", "T2 construct": "whole, on cells; CHO-K1 cells transfected with the human β1-AR, from the University of Nottingham; also called β1-AR; β-1AR", "T2 sequence (P08588 whole entry)": "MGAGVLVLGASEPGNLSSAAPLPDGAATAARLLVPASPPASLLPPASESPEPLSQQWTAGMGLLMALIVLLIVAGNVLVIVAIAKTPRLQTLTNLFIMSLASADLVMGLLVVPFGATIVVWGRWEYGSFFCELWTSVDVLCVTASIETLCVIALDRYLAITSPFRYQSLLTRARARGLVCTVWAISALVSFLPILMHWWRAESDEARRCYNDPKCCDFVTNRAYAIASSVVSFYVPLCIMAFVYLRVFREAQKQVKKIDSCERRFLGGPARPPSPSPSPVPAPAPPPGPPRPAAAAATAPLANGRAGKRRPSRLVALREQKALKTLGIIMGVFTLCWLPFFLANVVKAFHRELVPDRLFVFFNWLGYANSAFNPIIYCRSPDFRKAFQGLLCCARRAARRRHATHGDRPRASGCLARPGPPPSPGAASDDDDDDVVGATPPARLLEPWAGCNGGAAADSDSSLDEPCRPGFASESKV", "experiment": "[125I] ZAG binding to crude membranes of CHO-K1 cells transfected with human β1-AR, non-linear regression", "experimental": "as §1, §2"}, "[3]": {"molecular_target": "T1, human β2-adrenergic receptor", "experiment": "[125I] ZAG binding to crude membranes of transfected CHO-K1 cells; reference is ZAG on β3-AR", "experimental": "as §1, §2"}, "[4]": {"molecular_target": "T3, human β3-adrenergic receptor (human, UniProt P13945 1-408)", "T3 construct": "whole, on cells; CHO-K1 cells transfected with the β3-AR, from Astra Zeneca; also called β3-AR; β-3AR", "T3 sequence (P13945 whole entry)": "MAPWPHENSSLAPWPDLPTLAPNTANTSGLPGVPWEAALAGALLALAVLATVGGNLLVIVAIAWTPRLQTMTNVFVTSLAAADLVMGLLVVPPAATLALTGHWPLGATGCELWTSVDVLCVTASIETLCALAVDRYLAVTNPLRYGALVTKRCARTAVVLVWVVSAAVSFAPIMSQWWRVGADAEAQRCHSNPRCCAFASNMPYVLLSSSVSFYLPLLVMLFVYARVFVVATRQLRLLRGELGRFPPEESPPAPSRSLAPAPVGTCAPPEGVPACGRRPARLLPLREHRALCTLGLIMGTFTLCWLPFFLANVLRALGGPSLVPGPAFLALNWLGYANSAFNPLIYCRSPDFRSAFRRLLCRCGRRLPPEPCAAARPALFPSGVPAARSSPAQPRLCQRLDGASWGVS", "experiment": "[125I] ZAG saturation binding to crude membranes of CHO-K1 cells transfected with human β3-AR, non-linear regression", "experimental": "as §1, §2"}, "[5]": {"molecular_target": "T3, human β3-adrenergic receptor", "experiment": "[125I] ZAG binding to crude membranes of transfected CHO-K1 cells; reference is ZAG on β2-AR", "experimental": "as §1, §2"}},
  "data": [
    {"binder": "recombinant human zinc-α2-glycoprotein (ZAG) (ligand, 125I label (iodo bead labelling) in the membrane binding studies; labelled residues not stated, Glycoprotein; also called Zn-α2-glycoprotein; rhZAG) QENQDGRYSLTYIYTGLSKHVEDVPAFQALGSLNDLQFFRYNSKDRKSQPMGLWRQVEGMEDWKEDSQLQKAREDMETLKDIVEYYNDSNGSHVLQGRFGCEIENNRSSGAFWKYYYDGKDYIEFNKEIPAWVPFDPAAQITKQKWEAEPVYVQRAKAYLEEECPATLRKYLKYSKNILDRQDPPSVVVTSHQAPGEKKKLKCLAYDFYPGKIDVHWTRAGQVQEPELRGDVLHNGNGTYQSWVVVAVPPQDTAPYSCHVQHSSLAQPLVVPWEAS", "values": [
      {"measurement": "Kd", "setting": "[1]", "result": 71, "unit": "nM"},
      {"measurement": "binding result", "setting": "[2]", "result": "no binding"},
      {"measurement": "Bmax relative to β3-AR", "setting": "[3]", "result": 20, "unit": "%"},
      {"measurement": "Kd relative to β3-AR", "setting": "[3]", "result": 2, "unit": "fold"},
      {"measurement": "Kd", "setting": "[4]", "result": 46, "unit": "nM"},
      {"measurement": "Bmax relative to β2-AR", "setting": "[5]", "result": "~3", "unit": "fold"},
      {"measurement": "Kd relative to β2-AR", "setting": "[5]", "result": "~0.5", "unit": "fold"}
    ]}
  ]
}
